Target: T1, Cyp33 RRM domain (1–83) (UniProt Q9UNP9 1-83)
T1 sequence (looked up): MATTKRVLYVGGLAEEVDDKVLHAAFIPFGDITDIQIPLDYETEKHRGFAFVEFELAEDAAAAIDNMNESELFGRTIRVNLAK
Assay: NMR titration

binding result: binds
B1: KMT2A PHD3 finger (1565–1627) (domain or fragment, UniProt Q03164 1565-1627, looked up)
chain: KGNFCPLCDKCYDDDDYESKMMQCGKCDRWVHSKCENLSDEMYEILSNLPESVAYTCVNCTER
